Biological target: pyruvate dehydrogenase complex (PDHC) immuno-captured from tissue lysates of E3 mice

B1: TAT-LAD fusion protein (His tag, TAT peptide, human LAD precursor) (protein)
chain: MGSSHHHHHHSSGLVPRGSHMRKKRRQRRRGSDPQSWSRVYCSLAKRGHFNRISHGLQGLSAVPLRTYADQPIDADVTVIGSGPGGYVAAIKAAQLGFKTVCIEKNETLGGTCLNVGCIPSKALLNNSHYYHMAHGTDFASRGIEMSEVRLNLDKMMEQKSTAVKALTGGIAHLFKQNKVVHVNGYGKITGKNQVTATKADGGTQVIDTKNILIATGSEVTPFPGITIDEDTIVSSTGALSLKKVPEKMVVIGAGVIGVELGSVWQRLGADVTAVEFLGHVGGVGIDMEISKNFQRILQKQGFKFKLNTKVTGATKKSDGKIDVSIEAASGGKAEVITCDVLLVCIGRRPFTKNLGLEELGIELDPRGRIPVNTRFQTKIPNIYAIGDVVAGPMLAHKAEDEGIICVEGMAGGAVHIDYNCVPSVIYTHPEVAWVGKSEEQLKEEGIEYKVGKFPFAANSRAKTNADTDGMVKILGQKSTDRVLGAHILGPGAGEMVNEAALALEYGASCEDIARVCHAHPTLSEAFREANLAASFGKSINFE
PDHC enzymatic activity of immuno-captured PDHC, the three organs at 24 hours post-treatment, percent increase: increase in PDHC enzymatic activity (40-65%) was also evident in the three organs at 24 hours post-treatment
